Experimental data as given in patent US8642555.

Test system: albumin-bound form of EMC-Arg-Ser-Ser-Tyr-Tyr-Ser-Leu-PABC-DOXO (6)

## prostate-specific antigen (PSA)
  PSA-mediated cleavage monitored by HPLC (enzyme activity): cleaved efficiently within a few hours
